Results on one protein are retold here after article PMC4407889, “Improved Catenated Structures of Bovine Peroxiredoxin III F190L Reveal Details of Ring-Ring Interactions and a Novel Conformational State” (PLoS ONE, 2015).

The data set deals with the molecule itself. As to the kind of experiment: crystal structure; reduced form, crystallized in the presence of DTT; sitting-drop vapor diffusion, 16°C, 34% (v/v) 2-methyl-1,3-propanediol, 0.1 M phosphate-citrate pH 4.2; protein 15 mg/ml; space group P2(1)2(1)2; 2.2 Å.

B1: bovine peroxiredoxin III F190L (enzyme, UniProt P35705 63-257, looked up)
chain: APAVTQHAPYFKGTAVVSGEFKEISLDDFKGKYLVLFFYPLDFTFVCPTEIIAFSDKASEFHDVNCEVVAVSVDSHFSHLAWINTPRKNGGLGHMNIALLSDLTKQISRDYGVLLEGPGLALRGLFIIDPNGVIKHLSVNDLPVGRSVEETLRLVKAFQFVEAHGEVCPANWTPESPTIKPHPTASREYLEKVNQ
notes: Mitochondrial 2-cys peroxiredoxin III (PrxIII), bovine, lacking its N-terminal 62 amino acid mitochondrial targeting signal; residue 1 is the N-terminal alanine of the mature protein; Construct in pET14b; Twelve chains form one (α2)6 dodecameric toroid, and two toroids interlock as a two-ring catenane in the crystal; In the oxidized form Cys47 of one monomer is disulfide-bonded to Cys168 of its …
For the protein B1, the stoichiometry N (in general, a count of units in the complex or per binding partner) amounted to 12.
